Test results reported in patent US7193044B1, “Compounds and methods for regulating apoptosis, and methods of making and screening for compounds that regulate apoptosis” (Immunogen, Inc., priority 2000, dated 2007).

Experiments:
[1] = tested on: BAD Ser155 phosphorylation in HeLa cells; test: BAD phosphorylation in HeLa cells (western blot band-shift / anti-phospho-Ser155 antibody); format: cell-based, human
Method: A mammalian expression vector encoding mutant HA-BAD S155A, derived from the shorter murine BAD of SEQ ID NO:3, was constructed. HA-BAD S155A has an amino acid sequence wherein the serine at a position corresponding to Ser155 is substituted with alanine. A western blot was performed on WCL prepared from cells expressing the shorter murine BAD (SEQ ID NO:3), HA-BAD S112A, HA-BAD S136A, or HA-BAD S155A, and probed with anti-HA antibody.
A western blot analysis, probed with anti-HA antibody, was performed on lysates produced from the Forskolin treated and untreated (control) cells to determine whether Forskolin could induce the phosphorylation BAD or mutant BAD.
HeLa cells transiently expressing HA-BAD, HA-BAD S155A, HA-BAD S112A/S136A, or HA-BAD S112A/S136A/S155A were treated with Forskolin or a buffer control.
The HA-BAD S112A/S136A double mutant was transiently expressed in HeLa cells, and transfected cell cultures were treated with each of the GPCR ligands, individually and as a group. A western blot analysis, probed with anti-HA antibody, was performed on lysates produced from the treated and untreated (negative control) cells. […] Forskolin (FK) and no treatment (−) were positive and negative controls, respectively (FIG. 6(a), […], respectively).
Non-transfected HeLa cells were treated with Forskolin or L-epinephrine, followed by western blot analysis of cell lysates using anti-BAD antibodies.
Transformants were treated with L-epinephrine, then lysed and subjected to anti-HA western blot analysis.
To further test whether phosphorylation of Ser155 is dependent on the PI 3-kinase/Akt pathway, HeLa cells were transfected with the mutant HA-BAD S155A and pretreated with Wortmannin, an inhibitor of PI 3-kinase. These cells were then stimulated with epidermal growth factor (EGF), lysed and analyzed by western blot analysis.
For immunoprecipitation of all HA-BAD species, 1 μg of the anti-HA antibody was added to the cell lysates, and incubated at 4° C. for one hour. Protein G agarose (Pierce) was then added (50 μl/fraction of 50% slurry) and followed by a one hour incubation at 4° C. Beads were washed with RIPA buffer, boiled in loading buffer (2% SDS, 10% glycerol, 5% β-ME, 60 mM Tris, pH 6.8, 0.002% Bromophenol Blue) and loaded onto polyacrylamide gels. After electrophoresis, proteins were transferred to nitrocellulose membranes, and blots blocked in western wash buffer (40 mM Tris, pH 8.0, 150 mM NaCl, 0.2% NP-40) with 5% BSA for one hour at room temperature. Blots were incubated with primary antibody diluted in western wash buffer with 3% BSA at room temperature for 1–2 hours, washed with western wash buffer and incubated with secondary HRP-coupled antibody diluted in western wash buffer with 1.5% BSA, and washed extensively. Polypeptides were detected with the ECL chemiluminescence according to the manufacturers instructions (Amersham).

HeLa cells = test: Fluorescence-based beta-galactosidase assay of BAD-induced cell death in transfected HeLa cells; parameters: species or system human; conditions: SFM vs SFM+EGF, 12 hours
Method: FIG. 12(B) is a graphic representation of the results of a β-galactosidase assay. HeLa cells were co-transfected with the β-galactosidase gene and either HA-BAD (“WT”), HA-BAD S155A (“S155A”), HA-BAD S112A/S136A (“S112A/S136A”) or HA-BAD S112A/S136A/S155A (“AAA”). Transfected cells were then cultured in serum-free medium (SFM) or SFM supplemented with EGF (SFM+EGF) for 12 hours. Cell lysates were prepared and BAD-induced cell death was measured by the loss of β-galactosidase activity in a fluorescence-based assay. Fluorescence was measured at 465 nm. Results shown are the average and standard deviation of triplicate transfections (this experiment was repeated two more times with similar results). Expression levels of HA-tagged BAD and BAD mutants in transfected cell lysates were detected by anti-HA western blot analysis: HA-BAD (“WT”), HA-BAD S155A (“A”), HA-BAD S112A/S136A (“AA”), and HA-BAD S112A/S136A/S155A (“AAA”).
FIG. 12(C) is a graphic representation of the results of a β-galactosidase assay. HeLa cells were co-transfected with the β-galactosidase gene and either an empty vector (“CTL”), wild-type BAD (“WT”), the BAD S155A mutant (“S155A”) or the BAD S155D mutant (“S155D”). Cell lysates were prepared and BAD-induced cell death was measured by the loss of β-galactosidase activity in a fluorescence-based assay. Fluorescence was measured at 465 nm. Results shown are the average and standard deviation of triplicate transfections (this experiment was repeated two more times with similar results).
HeLa cells were co-transfected with the β-galactosidase gene and either wild-type BAD, BAD S155A, BAD S112A/S136A or BAD S112A/S136A/S155A. […] Cell lysates were prepared and BAD-induced cell death was measured by the loss of β-galactosidase activity in a fluorescence-based assay. […]
To measure β-gal activity, HeLa cells were plated in 12-well plates at 5×10^4 cells/well one day prior to transfection. […] Beta-gal activity was measured in extracts using a fluorogenic substrate (MUG, BIO-RAD FluorAce™ β-gal Reporter Assay, #170–3150). […]

B1: BAD S155A: mutant of shorter murine BAD, serine corresponding to Ser155 substituted with alanine; HA- or GST-tagged (protein)
chain: MFQIPEFEPSEQEDASATDRGLGPSLTEDQPGPYLAPGLLGSNIHQQGRAATNSHHGGAGAMETRSRHSSYPAGTEEDEGMEEELSPFRGRSRSAPPNLWAAQRYGRELRRMADEFEGSFKGLPRPKSAGTATQMRQSAGWTRIIQSWWDRNLGKGGSTPSQ
modifications: left off: small tags and cut ends
notes: mutant of shorter murine BAD, serine corresponding to Ser155 substituted with alanine; HA- or GST-tagged
- band-shift (phosphorylation) of expressed BAD construct in response to L-epinephrine ([1]; HeLa cells): significantly reduced
- reactivity with anti-phospho-Ser155 specific BAD antibody ([1]; HeLa cells treated with Forskolin): failure of the anti-phospho-Ser155 specific BAD antibody to react
- growth factor (EGF)- and serum (FCS)-induced phosphorylation of expressed BAD mutant ([1]; HeLa cells, anti-HA western blot): dramatically reduced
- phosphorylation of expressed BAD mutant ([1]; HeLa cells, anti-HA western blot, compared to single mutation of Ser112 or Ser136): dramatically reduced the phosphorylation of the murine BAD in HeLa cells
- band-shift (phosphorylation) of expressed BAD construct in response to L-epinephrine ([1]; HeLa cells, listed as HA-BAD S155A): limited response
- effect of EGF stimulation on pro-apoptotic activity of the BAD mutant (HeLa cells): does not eliminate the protective effect of EGF
